Data as given in the DeepSol protein solubility set.

Experiment: soluble on expression in E. coli; label from the status in PepcDB or PDB records

Sequence | soluble on expression in E. coli
MEIPTAKPQKEHEFLNRIVGDWIMTASSGHEAYDPNDPEQVFIEKVRSIGGLWIIGEGTGKMPDGTSMTAVITVGFDPAKGNFVGTWVGSMMTNLWVYKGWLEEDGKTLTLEAEGPAFDGSGDTATYHDVLVLHDDNHRSFSGSVKQPDGTFKTFMTSEFRRKT | soluble
MEKAADLQDTASLTLKFKFNPKLGIDNPVLSLAEDHDPYDPWSLERPRFCLLSKEEGKSFGFHLQQELGRAGHVVCRVDPGTSAQRQGLQEGDRILAVNNDVVEHEDYAVVVRRIRASSPRVLLTVLARHAHDVARAQLGEDAHLCPTLGPGVRPRLCHIVKDEGGFGFSVTHGNQGPFWLVLSTGGAAERAGVPPGARLLEVNGLWQSGQQVTLLVAGPEVEEQCRQLGLPLAAPLAEGWALPTKPRCLHLEKGPQGFGFLLREEKGLDGRPGQFLWEVDPGLPAKKAGMQAGDRLVAVAGESVEGLGHEETVSRIQGQGSCVSLTVVDPEADRFFSMVRLSPLLFLENTEAPASPQGSSSASLVETEDPSLEDTSVPSVPLGSRQCFLYPGPGGSYGFRLSCVASGPRLFISQVTPGGSAARAGLQVGDVILEVNGYPVGGQNDLERLQQLPEAEPPLCLKLAARSLRGLEAWIPPGAAEDWALASDLL | soluble
MEKDIKRQIQILEIITSEEKWFTTIEISKILRCCNKTIMKDISFIKDFLPEDWHIKIKKGKGVRIYLPYNKHRNEITFLLFRESLTFRILQHLFERETKTIATLAERLYIQVPSILPALKRVENYLKKFGLKLRKKPLRLEGDEVRIMIMYLDLYLKSYNDTEWPFEKLKKEVIFQYLGTLEESLGISLHVVSKRHLSFFIAILLKRKQQGYKVQLNRKFLYFNTETPDYVKIGRIFEKLEREFGVSLTVQDKILLTISIKSSKYVYKDINKEKEESVQYFKEGNLSIYELVKDFINSLEEKLKVDLISDEEFIFALVDYFKRTIYHLQYLCMFERPQKQTIQYMQTEHSETFSAVKEVYTEFVKKNEIADYVSVEEIAKVTMYIEASRLRYTSNYKKVLLVTGESESWAEYLAATLAKRFGDKIQISTVFFAKKSDHDVNADFIISTIPLDLGSTPIICINSIPTERDYTNIQYYLDLQDG | not soluble
MEKGYRLLERIELGEPKNCYEKVVSHKHLIESIHLHLADLLNTHSGNAMIDSEYGLPDFNDVLSNNTNLVRHIQKNITATIERFEPRLLNVEVHYREDHHNPLQLGFGIRGEVSHNGGKVPMSIDVYMGTD | not soluble
MEKISDLIECIAYEKNLPKEMISKVIQGCLLKMAQNELDPLARYLVVEENKQLQLIQLVEVLEDGDERLVNDPSKYISLSKAKEMDPSVKIKDELSYSLSLESMKQGAINRLFKDLQYQLEKALEDSHFEAFQKRLNSVLMGQVILVDHNQNTFIEIEQQFQGVLSMRHRIKGESFKVGDSIKAVLTQVKRTKKGLLLELSRTTPKMLEALLELEVPEIKDKEIEIIHCARIPGNRAKVSFFSHNARIDPIGAAVGVKGVRINAISNELNKENIDCIEYSNVPEIYITLALAPAKILSVEIKKIPIEELNAEEKESIQERFIVNNHLQKAKVRLLDIEKSKAIGKGGVNVCLASMLTGYHIEFETIPSVKENAENESEKETPKVGVEALESLFKNLEHHHHHH | soluble
MEKKTIVLGVIGSDCHAVGNKILDHSFTNAGFNVVNIGVLSSQEDFINAAIETKADLICVSSLYGQGEIDCKGLREKCDEAGLKGIKLFVGGNIVVGKQNWPDVEQRFKAMGFDRVYPPGTSPETTIADMKEVLGVE | soluble
MEKLVAYKRMPLWNKQTMPEAVQQKHNTKVGTWGKITVLKGALKFIELTEEGEVLAEHLFEAGADNPMAQPQAWHRVEAATDDVEWYLEFYCKPEDYFAKKYNTNPVHSEVLEAMQTVKQGKALDLGCGQGRNSLFLAQQDFDVTAVDQNGLALEILQSIVEQEDLDMPVGLYDINSASIEQEYDFIVSTVVLMFLQADRIPAIIQNMQEKTSVGGYNLIVCAMDTEDYPCSVNFPFTFKEGELADYYKDWELVKYNENPGHLHRRDENGNRIQLRFATLLAKKIKLEHHHHHH | soluble
MEKRITTPLTDEVVKSLRAGDKVLITGYIYTARDAAHKRMVEAIQRGEKPPIDLKGQIIYYVGPTPPKPGQVIGSAGPTTAIRMDKYVEPLLKLGLKGMIGKGYRSPQVKELLKKYKAVYFAAVGGVATLLQKHIKSSELIAYEDLGTEAIRRLYVEDFPVIVANDAFGGDVFEEGRKKYAKIDV | soluble
MEKVQSISNGTNSISYTLTRSRRKTVGIRITENGEVKVAAPLNIPDRQLKDIILKKLPWILRKQEELRKICEESRLENKFADGETFLYLGKEYTLRIAKGVLPEGVNLEENYIVVAADETKVSVNGPQYIRNVLKNFYVNQFVDIAKTRMDFFSPKIGVCPRKLTVREQKTRWGSCSSKGNISLNWKLVMAPMEVIDYVIVHELCHMKEMNHSKNYWNIVKSIIPDFELRRKWLKDNGHRLLM | soluble
MEKYPEIQQMRSKMREGDDTNEFKIRPLKGLSHPSGNLQMQRFQEDRRERIHSIRKRENQDGRLDLIGVVGEITVVIDDVVYEEEKLRKVVFTMKG | not soluble
MELFKEISQEESNKDSKENDNINEEIDIEQLKDKVKDLELQLEYEIKQHNVEIAEREETIKILETRIQELEHYKNDITEKDEAIINMSEKLLILSNKYDILVKESKLQEEELKHFKNKKKYRNDKTNEYILGLRNQNDEIKKEHELLNEKYAQLVKEYAILQNSCKVLNEQLENNQKNMELLIKEKSNNLDEKTAIKILNIGSKELIHKRVHNKNVDELSNLKLELEYKDMILNKLMRKQVSEGKTIKVEYTNNENKFENEKKLGEMYQKYLDSVCDNDNLKKEINKLHNKINDMKVEEEEHLKTISILRDYINKMYKEDVNINQFDDLINNILKDNTSLNEELSKQKRKNMADIYYFTKELQIVKKDKFKIIEKFDSKKVTNIPHLYEPLNLTLSKENNKREISDDDDDNKGPKGDLNFLKKNSDINCSESNIKKPLKTNDLVHIYMQDYMNNVQNKA | not soluble
MELKDGESAGNAENDVEIENPEKSEKAEILQSLDKSLGKSTEESPEAKNLRYFKTKKIRFGPIEYQIVTQNINGPCPLIALINALVLKGKLTIPSSYVVTSTNLLNLLTNVILARAPPENDEKLKETFEANLGDVMNIMETLVNGLDVNVKFSAVDTFEFTPALSLFDLVSVNLYHVWLPDPQFTVLYDLIRNLNYNELVEKMCGDQSTETELLRTFYDESISQITFHGLASLMERMKDGELAVVFHNNHFSTILKRRDEIFKLVSDEGLCDEPNIVWETFSSVDGDCIFVNGDFGNFKPITPPTTHPSPESFEKLQISDNSPIEQGIEAVEHTSAHHSAPVSPQHRAPAPPAPQTARAPPETSPTRNSGAGGKSCLIM | soluble
MELTLESQGYLESLYRAYLEDPLSLPEDWRRYFSALTLEDLEDGRRERQAAPLPGEALDLGFLLKVEALRQAYRELGHLAARIDPLGRERPRPKALSLEAHGLSPEDLKRPLPPLFGAPTLGALLERLEATYLGPVGFEVAHVEPEERAWLLSRIEAPWPKPAPEVRRRVLRSLLQASLFEAFLQRKYLGAKTFSVEGLESLIPLLQEAVQEAARFGVREVVLGMAHRGRLNVLAHVVEKPFEAIFREFEELFPEGYVGDVKYHLGHSTDVETPWGPVHVSLNFNPSHLEFVNPVALGRVRAKQDRFGDRERKRGLAVLVHGDAAFIGEGIVQETLNLSQLPGYRVGGTLHVVANNQLGFTTLPSEYTSSRYPTDVAKMVGAPIFHVNAEALDELLFVLALALEYRSRYGKDVVIDLVGYRRRGHNETDEPTFTQPGMYALIAKKPEPWRVYAERLEAEGLVSEEELKAWQEAYLERLESEFARVKAEATPVVYSTLGGVWQGYVGGPDHLVPEADTAFPKEGLKNLLVRLSSVPEGFQVHPKLKRFLEARREMAEEKRPVDWATAEALAFATLAVEGHRVRLTGQDALRGTFTQRHAALYDYRTGERYIPLQHLAEGQAEVEIHNSPLSEAGVLGFEYGYSLDYPEGLVLWEAQFGDFVNVAQVYIDQFLASAEVKWNRLSGLVLLLPHGLEGQGPEHSSARLERFLQLAAKDNLQVAYPTTPAQFFHLLRRQVKRKIRKPLVVMTPKSLLRHPEVVSALEELAEGRFQKVIPERVKGARKVLLTSGKVYYDLLQKRKELQAEDVAILRLELLYPFPEAELQEALGAYPKKVPVVFVQEEPVNQGAWWYLSARFCGEIYGHPFSVVARPESPSPAVGSSKVHKLEQEELLEEAFR | soluble
MENEKIWIKELKEKRLAYGVSQNKLAVASHITRPYLSDIETGKAVPTQQVKEDLLNALERFNPDNPLEMLFDYVRIRFPTNDVAQIIGEVLRLNMDYMLHEDFGYYSYPEHYRFGDIVVLVSHDVSKGVLLELKGKGCRQFENFLLAQHRSWYDFFQDCMEHKGIFKRLDLAINDKTGILNIPDLAKKCKQEECISVFRSFKNYRSGELVHRDEKPYMGNTLYIGSLKSEVYFCIYEKDYEQYVKNDVPLEDAEVKNRFEIRLKNDRATQAMKDLLAHQQAEKTAFEIINRYIRFADKDDTKRRSDWKTNERWEWFIGKNRGALRLTTQPEPYSFERTLNWLHHQVAPTLKIASILDVLNGTTIISTMIQEAKLTEKHEKLIEQQHLAMEDLIT | not soluble
MENFAEIVGIGPAGVISITGGGGKTSLMFHLARQLAYSGKRVLTTTTTKILAPSVEESRTLLISQDPQVILRHAKAHPGPGVHVSAAAGHIPHTEKLQGFPREAIRTFEDSGEFDWVVVEADGAARKPLKAPAAHEPVIPGNSTIVVALAGLEVLGRPLGEEMVFRSELAGELMQIPQGETITVPALARLLAHPSGGFKGAPPQARRFIFLNKADTPELQEKGGEVALQLKEIAPSVAEAVIVGQLRQEITLHRVYPRGELEHHHHHH | soluble
MENGEVLISGYRIPYSYAAMPGVKKNLVIIDIKGDEIWQKLRAADRINEWKINVYIPHFIAGSKEVVDSEPSSNLDSAGEFYYNFVQAMRLKNVMLMGEGINADVALKCSMIHPERFSNVIAIDGTGYDGYAEELYRVQKPVLLVWGGARGYRETMIGQSYHDLIAGSVFKVFDNSKRPLEDSTDRFFSMLKNYIAVD | not soluble
MENLKETVDIVVNSRYPEMNREGRELLAQVLIRKELEKGEMLLNEGQISRHMVFVGKGMLRQFYYKNGKDVTEHFSYEGCILMCIESLLKQEPTHLMAEALEPAVVYMLPYDVLQKLLEQSKEINAFYRKVLEYSLIVSQIKADSWRFETARERYNLLLHHHPEIIKRAPLSHIASYLLMTPETLSRVRSGVL | not soluble
MENMENDENIVVGPKPFYPIEEGSAGTQLRKYMERYAKLGAIAFTNAVTGVDYSYAEYLEKSCCLGKALQNYGLVVDGRIALCSENCEEFFIPVIAGLFIGVGVAPTNEIYTLRELVHSLGISKPTIVFSSKKGLDKVITVQKTVTTIKTIVILDSKVDYRGYQCLDTFIKRNTPPGFQASSFKTVEVDRKEQVALIMNSSGSTGLPKGVQLTHENTVTRFSHARDPIYGNQVSPGTAVLTVVPFHHGFGMFTTLGYLICGFRVVMLTKFDEETFLKTLQDYKCTSVILVPTLFAILNKSELLNKYDLSNLVEIASGGAPLSKEVGEAVARRFNLPGVRQGYGLTETTSAIIITPEGDDKPGASGKVVPLFKAKVIDLDTKKSLGPNRRGEVCVKGPMLMKGYVNNPEATKELIDEEGWLHTGDIGYYDEEKHFFIVDRLKSLIKYKGYQVPPAELESVLLQHPSIFDAGVAGVPDPVAGELPGAVVVLESGKNMTEKEVMDYVASQVSNAKRLRGGVRFVDEVPKGLTGKIDGRAIREILKKPVAKM | soluble
MENSDDIRLIVKIAQLYYEQDMTQAQIARELGIYRTTISRLLKRGREQGIVTIAINYDYNENLWLEQQLKQKFGLKEAVVASSDGLLEEEQLSAMGQHGALLVDRLLEPGDIIGFSWGRAVRSLVENLPQRSQSRQVICVPIIGGPSGKLESRYHVNTLTYGAAARLKAESHLADFPALLDNPLIRNGIMQSQHFKTISSYWDSLDVALVGIGSPAIRDGANWHAFYGSEESDDLNARHVAGDICSRFYDINGGLVDTNMSEKTLSIEMAKLRQARYSIGIAMGEEKYSGILGALHGRYINCLVTNRETAELLLK | soluble
